Results as given in the supplement of paper PMC10126150.
± gives the standard deviation of the averaged measurements.

tested on: ATP; test: switch fluorescence ratio, 500 uM ATP over buffer (Cy3 cluster intensity, sum of 5 cycles each) (fold (ratio)); higher = stronger signal-on switching upon ATP binding; sequences stand for … in TCGTCGGCAGCGTCAGATGTGTATAAGAGACAGTTTTTTTTTTTTTTTTTTTTTTTTT…TC; details: aptamer strand: ATP DNA aptamer (quencher-CACCTGGGGGAGTATTGCGGAGGAAGG + anchor), 100 nM annealed; ATP concentration: 500 uM
Procedure, shortened: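 Cy3-labelled switching-strand clusters on a modified Illumina MiSeq flow-cell were annealed to 100 nM quencher-labelled ATP aptamer, imaged in selection buffer, then imaged after 15 min with 500 uM ATP at 22 °C. Five buffer/ATP cycles ran, with NaOH stripping and re-annealing between them. The fluorescence ratio is summed target-cycle over summed buffer-cycle Cy3 intensity per cluster, averaged per switch-domain sequence. Clusters outside 100-1000 RFU were excluded.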
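Further: ATP exposure 15 min at 22 °C before imaging.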

Sequence | switch fluorescence ratio
AAAAAAAAAA | 1 ± 0.022
AAAAAAAAAT | 1.04 ± 0.03
AAAAAAAATT | 0.993 ± 0.044
AAAAAACGGT | 1.02 ± 0.025
AAAAAAGGGG | 1.87 ± 1.5
AAAAAAGGTG | 1.16 ± 0.22
AAAAAATGTG | 0.99 ± 0.031
AAAAAATTGG | 0.989 ± 0.035
AAAAACATGG | 1.012 ± 0.0096
AAAAAGAAAT | 1.04 ± 0.021
AAAAAGCAGG | 1.13 ± 0.14
AAAAAGGAAT | 0.982 ± 0.011
AAAAAGGGAG | 1.01 ± 0.044
AAAAAGGGCA | 0.995 ± 0.061
AAAAAGGGT | 0.987 ± 0.032
AAAAAGGGTT | 1 ± 0.025
AAAAAGTGAG | 0.973 ± 0.042
AAAAATCCTG | 0.98 ± 0.021
AAAAATCGT | 1.01 ± 0.014
AAAAATGCCG | 0.99 ± 0.019
AAAAATGCGC | 1.03 ± 0.017
AAAAATGGGC | 1.035 ± 0.005
AAAAATGTTC | 0.9814 ± 4.7e-05
AAAAATTGTG | 1.01 ± 0.046
AAAAATTGTT | 0.986 ± 0.027

Sequence | switch fluorescence ratio
AAAACAGTTC | 1.04 ± 0.048
AAAACAGTTT | 0.987 ± 0.036
AAAACCCGA | 1.01 ± 0.051
AAAACCGTCG | 1.1 ± 0.023
AAAACCTTGG | 1.05 ± 0.021
AAAACGCATG | 1.05 ± 0.021
AAAACGGCGT | 0.959 ± 0.01
AAAACGGGAA | 1.02 ± 0.018
AAAACGTAAC | 1.25 ± 0.1
AAAACGTTTA | 1.01 ± 0.043
AAAACTAACG | 1.1 ± 0.037
AAAACTATTT | 0.9865 ± 0.0064
AAAACTGTCA | 1.009 ± 0.0086
AAAACTTTAT | 0.978 ± 0.013
AAAAGAAACC | 1.13 ± 0.048
AAAAGAGATT | 0.995 ± 0.013
AAAAGCAGGA | 1.05 ± 0.052
AAAAGCCCTT | 1.096 ± 0.0043
AAAAGCCGGT | 1.02 ± 0.034
AAAAGCGGGT | 0.997 ± 0.023
AAAAGCTTGC | 1.13 ± 0.11
AAAAGGAGGC | 1.01 ± 0.011
AAAAGGGAGA | 1.01 ± 0.013
AAAAGGGAGG | 1.03 ± 0.019
AAAAGGGGGA | 1.02 ± 0.022

Sequence | switch fluorescence ratio
AAAAGTATTA | 1.01 ± 0.025
AAAAGTGACC | 1.01 ± 0.045
AAAAGTGACT | 0.982 ± 0.049
AAAAGTGCCA | 0.999 ± 0.027
AAAAGTTGTT | 1.04 ± 0.019
AAAAGTTTGA | 0.9656 ± 0.008
AAAATAATTA | 0.981 ± 0.012
AAAATACGCT | 1.16 ± 0.17
AAAATAGCCG | 1.04 ± 0.054
AAAATAGGCC | 1.02 ± 0.013
AAAATAGGCT | 0.993 ± 0.029
AAAATATGTG | 1.02 ± 0.062
AAAATATTTT | 0.981 ± 0.027
AAAATCGCGT | 0.998 ± 0.057
AAAATGAAGA | 0.993 ± 0.026
AAAATGAAGT | 1.03 ± 0.048
AAAATGATAT | 0.99 ± 0.02
AAAATGCGAT | 1.01 ± 0.045
AAAATGGAAG | 0.9997 ± 0.0056
AAAATGGACA | 1.03 ± 0.019
AAAATGGAGG | 1.005 ± 0.0049
AAAATGGGGA | 1.02 ± 0.033
AAAATGGTGG | 1.02 ± 0.013
AAAATGTCGA | 1 ± 0.024
AAAATTCCGG | 1.011 ± 0.0011

Sequence | switch fluorescence ratio
AAAATTGACT | 1.002 ± 0.003
AAAATTGGTT | 1.009 ± 0.007
AAAATTTATT | 0.989 ± 0.018
AAAATTTTAT | 0.989 ± 0.026
AAAATTTTGA | 0.992 ± 0.025
AAACAAAAGT | 1.01 ± 0.037
AAACAAACCC | 1.01 ± 0.042
AAACACGACT | 1.07 ± 0.011
AAACACGAGC | 1.067 ± 0.0061
AAACAGCGTG | 1.01 ± 0.017
AAACAGTATA | 1.03 ± 0.027
AAACAGTTGT | 1.01 ± 0.055
AAACATAAAG | 0.995 ± 0.027
AAACATAGCC | 1.07 ± 0.011
AAACATAGGG | 1.02 ± 0.038
AAACCAAACT | 1.34 ± 0.31
AAACCACCCA | 1.1 ± 0.019
AAACCCAGCT | 0.988 ± 0.02
AAACCCTGGG | 1.04 ± 0.029
AAACCGTT | 1.04 ± 0.024
AAACCTTGCA | 1.92 ± 0.15
AAACGAACAT | 1.217 ± 0.011
AAACGACATT | 1.13 ± 0.13
AAACGAGAAC | 3.04 ± 2.8
AAACGAGGGA | 0.997 ± 0.051
